Measurements taken from patent US20080182249A1, “Expression systems for mammalian and mycobacterial desaturases” (priority 2006, published 2008).
Several values for one entry are separate records, joined by “and”; a condition that tells them apart may be missing. Equal values may be shown once.

Columns and labels:
[1] = target: T1, mSCD1 (Mus musculus, UniProt P13516); experiment: Conversion of [14C]-18:0-CoA to [14C]-18:1-CoA by reconstituted complexes of recombinant mSCD1 with cyt b5 and cyt b5 reductase; assay type: biochemical
T1 construct: 6xHis (from pYES-DEST52) (C); made in house; host or cells: mSCD1: Saccharomyces cerevisiae (OLE1-deficient strain L8-14C), used as microsomes; cyt b5 and cyt b5 reductase: Escherichia coli
T1 sequence (P13516 1-355): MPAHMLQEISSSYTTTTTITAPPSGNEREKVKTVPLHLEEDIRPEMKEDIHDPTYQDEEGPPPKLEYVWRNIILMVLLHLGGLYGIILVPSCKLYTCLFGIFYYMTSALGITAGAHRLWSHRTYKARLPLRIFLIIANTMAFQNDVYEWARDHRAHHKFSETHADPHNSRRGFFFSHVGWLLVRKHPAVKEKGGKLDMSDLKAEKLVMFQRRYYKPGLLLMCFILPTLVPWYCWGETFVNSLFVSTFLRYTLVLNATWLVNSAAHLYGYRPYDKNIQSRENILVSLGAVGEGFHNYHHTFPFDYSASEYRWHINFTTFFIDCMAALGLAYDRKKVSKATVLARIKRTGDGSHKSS

[2] = tested on: transgenic L8-14C; experiment: Fatty acid profile of transgenic L8-14C expressing human SCD constructs; assay type: cell-based, Saccharomyces cerevisiae; details: for 16:0 / 16:1 / 18:0 / 18:1: percentage of total C16 and C18 fatty acids detected
[3] = tested on: OLE1 deficient yeast strain L8-14C; assay type: cell-based, Saccharomyces cerevisiae; details: galactose minimal medium without unsaturated fatty acids, plus grades not defined

Molecule	% conversion ([1]; 18:0-CoA to 18:1-CoA, single trial of duplicate)	Correction by subtraction of background ([1]; average conversion minus background)	average conversion ([1]; mean of duplicate trials)	cpm 18:1-CoA ([1]; single trial of duplicate)	total cpm ([1]; single trial of duplicate)	cpm 18:0-CoA ([1]; single trial of duplicate, mSCD1 yeast microsomes, cyt b5 and cyt b5 reductase from E. coli)	Ratio 18:1/16:1 [2]	16:0 [2]	16:1 [2]	18:0 [2]	18:1 [2]	In vivo activity [3]
mSCD1 only: recombinant mSCD1 prepared as yeast microsomes, no exogenous cyt b5 or reductase (protein, UniProt P13516 1-355, looked up, yeast microsomes, recombinant mSCD1 prepared as yeast microsomes, no exogenous cyt b5 or reductase) Acyl-CoA desaturase 1: MPAHMLQEISSSYTTTTTITAPPSGNEREKVKTVPLHLEEDIRPEMKEDIHDPTYQDEEGPPPKLEYVWRNIILMVLLHLGGLYGIILVPSCKLYTCLFGIFYYMTSALGITAGAHRLWSHRTYKARLPLRIFLIIANTMAFQNDVYEWARDHRAHHKFSETHADPHNSRRGFFFSHVGWLLVRKHPAVKEKGGKLDMSDLKAEKLVMFQRRYYKPGLLLMCFILPTLVPWYCWGETFVNSLFVSTFLRYTLVLNATWLVNSAAHLYGYRPYDKNIQSRENILVSLGAVGEGFHNYHHTFPFDYSASEYRWHINFTTFFIDCMAALGLAYDRKKVSKATVLARIKRTGDGSHKSS	5.40% and 5.55%	3.47%	5.48%	1626 cpm and 1743 cpm	30,094 cpm and 31,416 cpm	28,468 cpm and 29,673 cpm						
hSCD1-wt: human SCD1 wild-type construct expressed in yeast L8-14C (protein, UniProt O00767 1-359, looked up) Stearoyl-CoA desaturase: MPAHLLQDDISSSYTTTTTITAPPSRVLQNGGDKLETMPLYLEDDIRPDIKDDIYDPTYKDKEGPSPKVEYVWRNIILMSLLHLGALYGITLIPTCKFYTWLWGVFYYFVSALGITAGAHRLWSHRSYKARLPLRLFLIIANTMAFQNDVYEWARDHRAHHKFSETHADPHNSRRGFFFSHVGWLLVRKHPAVKEKGSTLDLSDLEAEKLVMFQRRYYKPGLLMMCFILPTLVPWYFWGETFQNSVFVATFLRYAVVLNATWLVNSAAHLFGYRPYDKNISPRENILVSLGAVGEGFHNYHHSFPYDYSASEYRWHINFTTFFIDCMAALGLAYDRKKVSKAAILARIKRTGDGNYKSG							0.63	61.87 percentage	23.22 percentage	9.40 percentage	14.65 percentage	
mSCD4: mouse stearoyl-CoA desaturase isoform 4, cloned from heart, expressed in yeast (protein, UniProt Q6T707 1-353, looked up) Stearoyl-CoA desaturase 4: MTAHLPQEISSRCSTTNIMEPHSRRQQDGEEKMPLQAEDIRPEIKDDLYDPSYQDEEGPPPKLEYVWRNIIFMALLHVGALYGITLVPSCKVYTWLLGVFYNVVAGLGITAGAHRLWSHRTYKARLPLRIFLIMANTMAFQNDVYEWARDHRAHHKFSETHADPHNSRRGFFFSHVGWLLVRKHPAVKEKGKNLDMSDLKAEKLVMFQRRYYKLAVTLMFIILPTLVPWYLWGETFQHSLCVSNFLRYAVLLNFTWLVNSAAHLYGYRPYDRGIGARENPFVSMASLGEGFHNYHHTFPYDYSVSEYRWHINFTTFFIDCMAALGLAYDRKKVSKAVVLARIKRTGDGSHKSS												Not active
hSCD5-wt: human SCD5 wild-type construct expressed in yeast L8-14C (protein, UniProt Q86SK9 1-330, looked up) Stearoyl-CoA desaturase 5: MPGPATDAGKIPFCDAKEEIRAGLESSEGGGGPERPGARGQRQNIVWRNVVLMSLLHLGAVYSLVLIPKAKPLTLLWAYFCFLLAALGVTAGAHRLWSHRSYRAKLPLRIFLAVANSMAFQNDIFEWSRDHRAHHKYSETDADPHNARRGFFFSHIGWLFVRKHRDVIEKGRKLDVTDLLADPVVRIQRKYYKISVVLMCFVVPTLVPWYIWGESLWNSYFLASILRYTISLNISWLVNSAAHMYGNRPYDKHISPRQNPLVALGAIGEGFHNYHHTFPFDYSASEFGLNFNPTTWFIDFMCWLGLATDRKRATKPMIEARKARTGDSSA							3.39	45.032 percentage	8.90 percentage	7.73 percentage	30.20 percentage	
hSCD5-6xH: human SCD5 construct with 6xHis tag expressed in yeast L8-14C (protein, UniProt Q86SK9 1-330, looked up, C-terminal 6xHis tag, human SCD5 construct with 6xHis tag expressed in yeast L8-14C) Stearoyl-CoA desaturase 5: MPGPATDAGKIPFCDAKEEIRAGLESSEGGGGPERPGARGQRQNIVWRNVVLMSLLHLGAVYSLVLIPKAKPLTLLWAYFCFLLAALGVTAGAHRLWSHRSYRAKLPLRIFLAVANSMAFQNDIFEWSRDHRAHHKYSETDADPHNARRGFFFSHIGWLFVRKHRDVIEKGRKLDVTDLLADPVVRIQRKYYKISVVLMCFVVPTLVPWYIWGESLWNSYFLASILRYTISLNISWLVNSAAHMYGNRPYDKHISPRQNPLVALGAIGEGFHNYHHTFPFDYSASEFGLNFNPTTWFIDFMCWLGLATDRKRATKPMIEARKARTGDSSA							3.73	56.64 percentage	6.70 percentage	10.79 percentage	25.70 percentage	
